The target of assay [1] is recombinant CD16A 158V fused to monomeric human Fc (human, UniProt P08637 17-208). Put plainly: ELISA, construct titrated on coated CD16A 158V fused to monomeric human Fc.
Assay [2] has as its target T1, biotinylated dimeric CD16A antigen (human, UniProt P08637 17-208, limits assumed, biotinylated (site not stated)).
T1 construct: Soluble antigen; also called soluble CD16A antigen
Put plainly: ELISA, biotinylated dimeric CD16A titrated on construct captured by coated His-tagged human BCMA extracellular domain. The protocol: (§1) For the capturing approach, 96-well ELISA plates (Immuno Maxisorp, Nunc) were coated overnight at 4° C. with His-tagged human EGFR or BCMA extracellular domain at concentrations of 3.0 or 0.4 μg/mL, respectively. After blocking with 3% (w/v) skimmed milk powder dissolved in phosphate buffered saline (PBS), antigen coated plates were used for capturing of different multivalent bispecific engagers at concentrations of 3-5 μg/mL in PBS containing 0.3% (w/v) skimmed milk powder. After washing three times with 300 μL per well of PBS containing 0.1% (v/v) Tween 20, plates were incubated with serial dilutions of biotinylated dimeric or monomeric CD16A antigen in PBS containing 0.3% (w/v) skimmed milk powder for 1.5 h at room temperature. After washing, plates were incubated with the detection conjugate Streptavidin HRP, 1:10,000 diluted in PBS containing 0.3% (w/v) skimmed milk powder for 1 h followed by washing and incubation with tetramethylbenzidine substrate (Seramun) for 1-2 min. Reaction was stopped by addition of 0.5 M H₂SO₄ (100 μL/well). Absorbance was measured at 450 nm using a multiwell plate reader, plotted and EC₅₀ values were determined by fitting a nonlinear regression model to sigmoidal dose-response curves (four parameters logistic fit) using GraphPad Prism software.
(§2) Concentration dependent binding of antibody constructs to coated recombinant CD16A antigen, or of soluble monomeric or dimeric CD16 antigen variants to coated or target antigen captured antibody constructs was analyzed in ELISA. Half maximal binding concentrations (EC₅₀) were determined by fitting a nonlinear regression model to sigmoidal dose-response curves (four parameters logistic fit) using GraphPad Prism software.

Assay [3] deals with T2, His-tagged human BCMA extracellular domain (human, UniProt Q02223 1-54).
T2 construct: extracellular domain; Coated at 0.4 ug/mL to capture the BCMA-targeting constructs; not shown: His tag
T2 sequence (looked up): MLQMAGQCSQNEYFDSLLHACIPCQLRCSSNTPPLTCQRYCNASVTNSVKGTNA
Nature of the assay: ELISA, construct captured on coated His-tagged human BCMA extracellular domain.

The target in assay [4] is T3, recombinant CD16A 158F fused to monomeric human Fc (human, UniProt P08637 17-208).
T3 construct: also called recombinant CD16 antigen variant; not shown: monomeric human Fc
Put plainly: ELISA, construct titrated on coated CD16A 158F fused to monomeric human Fc.

In assay [5] the target is T4, biotinylated monomeric CD16A antigen (human, UniProt P08637 17-208, limits assumed, biotinylated (site not stated)).
T4 construct: Soluble antigen; also called soluble CD16A antigen
Nature of the assay: ELISA, biotinylated monomeric CD16A titrated on construct captured by coated His-tagged human BCMA extracellular domain. The protocol: as §1, §2

Assay [6] concerns the target T4, biotinylated monomeric CD16A antigen. Put plainly: ELISA, biotinylated monomeric CD16A titrated on coated construct.
Assay [7] deals with T1, biotinylated dimeric CD16A antigen. Nature of the assay: ELISA, biotinylated dimeric CD16A titrated on coated construct.

T4 sequence (P08637 17-208 limits assumed): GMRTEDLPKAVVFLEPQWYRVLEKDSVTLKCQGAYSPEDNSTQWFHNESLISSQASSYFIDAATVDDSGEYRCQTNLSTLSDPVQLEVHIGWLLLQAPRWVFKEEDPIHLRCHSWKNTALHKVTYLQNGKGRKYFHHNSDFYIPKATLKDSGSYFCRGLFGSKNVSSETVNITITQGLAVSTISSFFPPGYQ
T1 sequence (P08637 17-208 limits assumed): as above
T3 sequence (P08637 17-208): as the sequence (P08637 17-208 limits assumed) above
Chain of recombinant CD16A 158V fused to monomeric human Fc (P08637 17-208 F176V): as the sequence (P08637 17-208 limits assumed) above, with F160V counted along it

B1: scFv-IgAb_18 (bispecific antibody)
heavy: EVQLLESGGGLVQPGGSLRLSCAASGFTFSNYDMAWVRQAPGKGLEWVSSISTRGDITSYRDSVKGRFTISRDNSKNTLYLQMNSLRAEDTAVYYCARQDYYTDYMGFAYWGQGTLVTVSSASTKGPSVFPLAPSSKSTSGGTAALGCLVKDYFPEPVTVSWNSGALTSGVHTFPAVLQSSGLYSLSSVVTVPSSSLGTQTYICNVNHKPSNTKVDKKVEPKSCDKTHTCPPCPAPEFEGGPSVFLFPPKPKDTLMISRTPEVTCVVVAVSHEDPEVKFNWYVDGVEVHNAKTKPREEQYNSTYRVVSVLTVLHQDWLNGKEYKCKVSNKALPAPIEKTISKAKGQPREPQVYTLPPSREEMTKNQVSLTCLVKGFYPSDIAVEWESNGQPENNYKTTPPVLDSDGSFFLYSKLTVDKSRWQQGNVFSCSVMHEALHNHYTQKSLSLSPGGGGGSGGGGSGGGGSGGGGSGGGGSGGGGSSYVLTQPSSVSVAPGQTATISCGGHNIGSKNVHWYQQRPGQSPVLVIYQDNKRPSGIPERFSGSNSGNTATLTISGTQAMDEADYYCQVWDNYSVLFGGGTKLTVLGGSGGSGGSGGSGGSGGSGGSQVQLVQSGAEVKKPGESLKVSCKASGYTFTSYYMHWVRQAPGQGLEWMGAIEPMYGSTSYAQKFQGRVTMTRDTSTSTVYMELSSLRSEDTAVYYCARGSAYYYDFADYWGQGTLVTVSS
light: AIQMTQSPSSLSASVGDRVTITCRASEDIYNGLAWYQQKPGKAPKLLIYGASSLQDGVPSRFSGSGSGTEFTLTISSLQPEDEATYYCAGPHKYPLTFGGGTKVEIKRTVAAPSVFIFPPSDEQLKSGTASVVCLLNNFYPREAKVQWKVDNALQSGNSQESVTEQDSKDSTYSLSSTLTLSKADYEKHKVYACEVTHQGLSSPVTKSFNRGEC
In the case of B1, the EC50 turned out to be 0.31 nM in assay [1]; 0.74 nM in assay [2]; 0.54 nM in assay [4]; 1.98 nM in assay [5]; 13.1 nM in assay [6]; 2.31 nM in assay [7]. Moreover, in assay [3], the binding result is “binds”.

The values above are taken from patent US20240376208A1 (AFFIMED, published 2024).
